Experimental data as given in patent US20250382362A1 (UNIVERSIT TSKLINIKUM REGENSBURG, published 2025).

Experiments:
human IL3 = molecular target: T1, human IL3 (human, UniProt P08700 20-152); test: cell-based or functional assay
T1 sequence: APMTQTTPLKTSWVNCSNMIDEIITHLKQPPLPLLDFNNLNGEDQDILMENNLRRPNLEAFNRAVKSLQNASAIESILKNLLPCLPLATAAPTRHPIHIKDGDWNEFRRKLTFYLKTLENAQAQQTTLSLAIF

[1] = molecular target: T2, IL3 peptide, amino acids 28-48 (mature) / 47-67 (native) (human); test: ELISA on coated linear IL3 peptide
T2 construct: Peptide in which amino acids 22-27 are deleted
T2 peptide: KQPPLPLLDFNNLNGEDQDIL
Procedure: (§1) Peptides were coated overnight in PBS in Nunclon 96 Flat Bottom Transparent Polystyrol plates (Thermo Fisher) at a concentration of 10 μg/ml (60 μl/well). Then […] were washed three times with wash buffer (0.05% Tween 20 in PBS), followed by blocking for 2 hours at room temperature with 1% BSA/PBS. After another washing step with wash buffer, antibody GRT002-H16L2 was added (60 μl of a 10 μg/ml solution in 1% BSA/PBS) and incubated for 1 hour at room temperature. 1% BSA/PBS served as a control. After another washing step, GRT002-H16L2 was incubated with a secondary antibody (HRP-conjugated AffinePure fragment goat anti-human IgG; Jackson Immuno Research) for 1 hour at room temperature. After a final washing step, 100 μl of ABTS (2,2′-azino-bis(3-ethylbenzothiazoline-6-sulfonic acid) was added to each well. Absorption was measured in a infinite 200Pro reader (Tecan) at 405 nm.

[2] = molecular target: T3, IL3 peptide, amino acids 26-48 (mature) / 45-67 (native) (human); test: ELISA on coated linear IL3 peptide
T3 construct: Peptide in which amino acids 22-25 are deleted
T3 peptide: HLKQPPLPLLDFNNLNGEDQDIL
Procedure: as §1

[3] = molecular target: T4, IL3 peptide, amino acids 22-48 (mature) / 41-67 (native) (human); test: ELISA on coated linear IL3 peptide
T4 construct: Linear peptide derived from human IL3, coated on the plate
T4 peptide: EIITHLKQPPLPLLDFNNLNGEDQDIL
Procedure: as §1

B1: GRT002-H16L2 (antibody, human IgG1, kappa, V domains shown)
VH: QVQLVQSGAEVKKPGASVKVSCKGSGFTFTDYALHWVRQAPGQRLEWMGLISTYYGDTTYNQRFKGRVTMTVDKSTSTAYMELSSLRSEDTAVYYCVITTVAGTDAMDYWGQGTLVTVSS
VL: DIQMTQSPSSLSASVGDRVTITCHASQNINVWLSWYQQKPGKAPKLLIYKASNLHTGVPSRFSGSGSGTDFTFTISSLQPEDIATYYCQQGYSYPYTFGGGTKLEIKR
notes: IgG1 of the G1m3 (heavy chain) and KM3 (light chain) allotype, lacks the C-terminal lysine; also called HC16 × LC2; humanized derivative of antibody P8C11
- Inhibitory activity (block of IL-3 induced downregulation of CD131 on primary human basophils; chimeric P8C11 normalized to 100%) (human IL3): 100%
- binding result [1]: binds
- binding result [2]: binds
- binding result [3]: binds
